The values that follow come from article PMC5934636.

One series deals with T1, hLa R32A/K34A/K37A (human, UniProt P05455 1-408, R32A;K34A;K37A).
T1 sequence: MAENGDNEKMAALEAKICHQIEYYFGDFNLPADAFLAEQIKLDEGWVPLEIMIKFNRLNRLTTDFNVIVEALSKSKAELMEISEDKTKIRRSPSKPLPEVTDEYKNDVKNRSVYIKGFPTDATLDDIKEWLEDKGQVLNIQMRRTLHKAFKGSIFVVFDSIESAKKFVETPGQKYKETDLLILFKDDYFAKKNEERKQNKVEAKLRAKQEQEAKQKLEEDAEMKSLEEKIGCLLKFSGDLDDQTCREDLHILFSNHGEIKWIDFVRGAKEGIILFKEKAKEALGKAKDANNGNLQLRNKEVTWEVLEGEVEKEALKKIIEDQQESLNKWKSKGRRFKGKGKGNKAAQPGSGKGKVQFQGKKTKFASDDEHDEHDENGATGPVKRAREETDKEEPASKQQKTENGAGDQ
Kind of series: EMSA.

A further series concerns the target T2, hLa K86A/T87A/K88A (human, UniProt P05455 1-408, K86A;T87A;K88A).
T2 sequence: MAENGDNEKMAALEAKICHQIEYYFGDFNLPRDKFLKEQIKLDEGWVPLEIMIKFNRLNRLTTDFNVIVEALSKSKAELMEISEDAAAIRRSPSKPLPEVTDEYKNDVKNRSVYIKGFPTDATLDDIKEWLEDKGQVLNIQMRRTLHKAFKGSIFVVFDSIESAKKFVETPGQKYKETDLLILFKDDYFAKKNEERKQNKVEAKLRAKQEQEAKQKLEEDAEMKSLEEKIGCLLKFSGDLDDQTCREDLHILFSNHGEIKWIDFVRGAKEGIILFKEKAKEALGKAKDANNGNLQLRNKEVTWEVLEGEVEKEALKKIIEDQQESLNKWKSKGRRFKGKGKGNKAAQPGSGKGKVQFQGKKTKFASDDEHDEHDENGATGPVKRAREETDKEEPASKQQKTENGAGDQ
Kind of series: EMSA.

The target in another series is T3, human La (hLa) (human, UniProt P05455 1-408).
T3 sequence: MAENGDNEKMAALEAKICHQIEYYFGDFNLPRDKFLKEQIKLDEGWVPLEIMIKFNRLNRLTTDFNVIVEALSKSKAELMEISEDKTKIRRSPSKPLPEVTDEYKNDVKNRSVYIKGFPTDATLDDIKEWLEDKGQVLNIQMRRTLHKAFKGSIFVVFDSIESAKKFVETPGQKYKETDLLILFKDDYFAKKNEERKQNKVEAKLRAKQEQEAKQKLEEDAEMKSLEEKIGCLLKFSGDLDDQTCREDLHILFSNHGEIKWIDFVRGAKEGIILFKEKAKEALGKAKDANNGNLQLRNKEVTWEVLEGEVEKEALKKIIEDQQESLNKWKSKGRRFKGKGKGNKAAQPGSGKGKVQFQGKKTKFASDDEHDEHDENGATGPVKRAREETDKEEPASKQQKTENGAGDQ
In words: competition.

As for UUUUUUUUUU (ssRNA) [U10], the binding result in the series with hLa R32A/K34A/K37A and with hLa K86A/T87A/K88A was “binds” in each case.
Consider AAAAAAAAAAAAAAAAAAAA (ssRNA) [A20], for which the binding result in the series with hLa R32A/K34A/K37A was “binds”.
In the case of UUUUUUUUUUUUUUUUUUUU (ssRNA) [U20], the binding result with human La (hLa) is reported as “binds”.
